Reference: the supplement of paper PMC12636428

system: Saccharomyces cerevisiae; experiment: transcriptional activation domain activity (GFP:mCherry ratio, weighted mean of sorted bins, harmonized to initial dataset scale) (arbitrary fluorescence ratio units); higher = stronger transcriptional activation; settings: beta-estradiol 1 µM; induction time 4 h
Description: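 53-aa protein tiles (fungal proteins plus yeast TF control tiles) fused C-terminally to a DBD-estrogen-binding domain-mCherry synthetic TF, integrated in S. cerevisiae (URA3 locus) with a GFP reporter. Cells were induced with 1 uM beta-estradiol for 4 h at 30 C, FACS-sorted into 8 bins by GFP:mCherry ratio and barcodes sequenced. Activity is the read-weighted mean bin fluorescence (GFP:mCherry), averaged over barcodes (median 12); tiles under 50 reads were discarded. New active-learning values were harmonized by linear fit onto the scale of the initial (Hummel et al.) dataset. The assay saturates at low and high signal.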

| Sequence | transcriptional activation domain activity |
| --- | --- |
| RQQDSSQSDRDSSRDSRTRDARHHSRRDGERRQRAESNGNLRPAEESRRGRSE | 25400 |
| VLPPLLLAILFAVLPFILRGLAWYECIPRYSLISVSVYRRFFLFLLIHGFLIV | 65300 |
| MLHSLYVVAISKSGILSSFVNPTTTTVHYTPFEISMIGYFNLVLIWLKLLILW | 61300 |
| SLWCLVIFPCSLVFLGLVGPVLSWFFLSFLFSWLIGRLVLYLILFLLFVTDWA | 22000 |
| KKKAAAEEDDEDDDEKVPAKKPAKRGRKKAADDEADEPQPPAKKAKKSPAKKT | 55800 |
| MHSVTAALRSLSLAGRRSLSTSAPRWEQAAAEAVASTSTWTPQTQRTGVLARK | 14900 |
| FLDLVLPHVGRWSDFVAYIPGVTVVEVNYLLRRLGSPKCGPALLLEKLHLFFF | 54400 |
| ALNAIIEGFQLFRSAFQPASLSVSMVHSVSVLVNWPSPYFTSLLLPGYDIGFP | 62800 |
| SSSSSRVACGQVVKCGSEVVATSNGAYPVQEGDSCSRARRQSTGSVVNRTTRP | 26400 |
| LSLWFLILGALSTTSSFFNIFILQWGVIRCCSVIGPGPCTESILGITQLAVQF | 51100 |
| ARQSDDDGQVKVYQRGSASLVAMLLTNLAPNETLIALINLIADRPWLKALYAL | 80500 |
| EKSQNNSNVINETIDHTDIHAHHADAHDDSFIESEEWLSKFIMDSQIDNDLKL | 139000 |
| MSRPSGCRSATSTGRATCSGCRRSSSPARPPCASRRARCSCGCVCASPTSTRR | 12100 |
| MGLYIFIFSFSFFLFFFFFFFFFFFVLGLVFVSMRTERLLSSQYFFFFWFFSG | 27800 |
| EVMKIMPVQKQTRAGQRTRFKAFVVIGDSEGHVGLGVKCAKEVATAIRGAIIL | 56900 |
| RVVYVSCNVHTQARDVGVLVRGEVEDVAANSNNTNMSTTTKNKTGGGVRYEIE | 23600 |
| AKMSVRPTVFGLNYIQLVAKLRLSLEDVRVEYLIYAAQILVLKDQFLRHEFHV | 53000 |
| APAPIAAEPAPAPAVETPAPAPAPATEEKKEEAAAPAVEATPAPAAAPAAATT | 30500 |
| MITTLYHHVRYILIRQPRRPVSLLDQPAVLNYLYVLLYHTIVTFNILTPAVYW | 49600 |
| NGGLSELKERLDEGRASYAYVKVTYSNDKESTREKFILVIWIGSSCKVMRKAK | 42900 |
| SKHSKKRSSKRARSSSSSSSSSSSEEDDRRRRKRRKEKKRSHKKSHTRRRSRS | 32700 |
| GGAARVDREEMPGVTLCLRHLSACVLGVFLVESSKKVLVVVRTEPITLSKSFG | 45200 |
| MIGDGGRVFRVHSSLSLSFVIFFFSVLLFFFCPFSFVFYCIYAFLVPGLVVLV | 35200 |
| LFLAGILRWGSRIVLVLFLLLLFRLSLLFCLGHLFFAYSLSTLGILLLLMIFF | 31600 |

| Sequence | transcriptional activation domain activity |
| --- | --- |
| AILIRSIFRVAEFAGGCVVSFSLWMCHKTTCIFLRFDTLPLWLAMSLYCVVWP | 49700 |
| DQTICAEVMRCCESNVVAFRRLVHMIQIQLRNIGIMADIRLVRNLVLVLHGAL | 62000 |
| GGGTAARSAGSSSREEERGQRRHGRGERGREGADAGRKGGREGTREALAGKGR | 30800 |
| GMEGERVKESIRRVQHQGADELYRRSQEKNGKGLRLSQSKTRSRGETPLQLIA | 63100 |
| KSSEAAPAEENKPSPEKNGKGKQGEDKGGNNGKENKGGDKGGGKGAQSKKGKK | 31600 |
| AGALLDLYLRRNRCYVSNGYLGCSVLYLSTSLVVSCFLSWVTATILIILDIKR | 83600 |
| SCFIFLGHHFDVFVSFLLKIGLGDEMLGVLWFFFSCVLLVGAFLLRLLGFYHT | 67900 |
| KKLQNDILRPVDWIMYYYFASHIPITVLFDLQAIYPTNWVPQLLLDINAQYIN | 37500 |
| MIPSYLSHGRAAIIAIRLVLALYFFWHPLVLFLSSLKLITPCICLHLLFAFWI | 62500 |
| MALEFLMDDIHLNKFLLLGYGVISKFLIVCHRYSKVVGETYYVIHTGIFYLLG | 56200 |
| GDEIVVVIQRARPVSAAAASSVTAVKVRRGDVRRAVIVRTRKAVRRPDGRYIR | 70400 |
| LVLTGDAHSTYDVEVLVLMYILICGPFNFISGQLGEYRSIALVNVEFVVVWPA | 63300 |
| ALYGLQAVVFVVIPLLQIIQIALILCQFFVANYFTIFSFVNVLFIIVAVFAFL | 41400 |
| YKEWDELVKYFFRQVTKRVQERPELVVEMLFSKIPATIFFLDHGYDRELPSRA | 46400 |
| IDDFEQFRTEYTIDLSDFQNTERLKFLEEYYWKTLNFTTPMYGADTPGSIFPE | 93300 |
| NNSINATPIVDNSSGSQLPNGFDRGQANNTPFPGYFGGLDLFDYDFLFGNDFA | 133000 |
| KFNLLEWSEILSLLTCYRLLIAMYSFRSLVIVIASYIVFGLSVFSLLVRLLFL | 38100 |
| TRHLHFTRYHIFTNSKCILLAVGKLLYCACALGWYGLIVGFVVTVLMLCQDSL | 22600 |
| MAPPFLGHFFGLYPSIMIRFPCLLLYRFATVYLGVLLFPFSILFFILFIFYFF | 34200 |
| ESDGGGEESGEGEERRKRRKKERLERRERKLKAKEEKKKKKSRGDGEAATKSQ | 25100 |
| EYMGKETGSHHLGREGEEKTYAVRRDYESRNRVALTPERNAVEIVRVRTQAAP | 19700 |
| AFVLFLIYLTFFCWLCFATSASWVWSEILSDGQYNESFMPVNYVLLAVLSGII | 53800 |
| LKKHDVNALVTVICNFLICITMALCVVWDSELLPDCLFRVKLIYTLITLGFLC | 63400 |
| NLRVIELRFSLRFYRDVVFCRKLLRKHEVFVTIIKLLLCLLTLDIEGLKIKVG | 46500 |

| Sequence | transcriptional activation domain activity |
| --- | --- |
| MFIVCLFLFMILHYSFMFYIFGSNYLLLLLLVLLSWWFFLLYFPTFIFLFGVL | 48700 |
| SNFASKVNTQLNLLQHSSSNSNFLDASPYDFNKIFMNNFENYDYETDEGYAED | 63600 |
| AAPAASKAAPAAASPEKKEKAKPGKKEREAAKAAAAAAPPKASASSSSAPEQA | 18300 |
| YILSSLVTYKGIINHNDQSILILGIPKLHRLLMENVHVLHLLINSCITTLASC | 44000 |
| TQQLEFWLPWQWIQANVFFPCVSYIYFRDWREMMEILLSYRSIEMDGLAFCLV | 69300 |
| MILNGELERCRESLHIVSEYVHSILRLNVLCLRLLYRRMDPSREPVDLFEVAV | 54500 |
| GNAVYMSMDLPDTTFALSKLLNYIEWNRAKLFSFAFFVCVWTYFRHYLNLVIL | 46000 |
| RWGGILNTHLCLLSTLVLCCTMLRFCINVIWTDTFVNWEMGWRTVCPWLLILL | 44600 |
| PPPPPPPPPPAGRGGGAPPPHAISGGAPPPPPTPPPPPPPPPPPGVVPVPPPP | 41600 |
| RRTRYLVLCVALELISSILYLYLISIFGSLHLATFPLRLGFFFLLLSRLLCTM | 35100 |
| QDNLNIEDKEEMSPNIEIKNEQNMTDSNDILGVFDQLDAQLFGKYLPLNYPSE | 81700 |
| KEAKSKSKAAHDNDAKRKTTATKPKRTSARNGKAPVKSKPKKGGGNAEPSAKK | 10300 |
| WYAPDAGGSVYDYITLTAGLDALNCAQKVRISPLLIVLLRNFAVRCLLSKGSL | 52300 |
| VYRRELDQNKGGLILIVRRTGNEVHCGVYITFGFMKQWKLYVKSLISITGQWH | 58500 |
| RKAKATAKEGDKEKSDGGEKLKKASKRSDGEDDKAGQRSSGNKKSRAKKRAED | 16400 |
| HSMPSLATICGVCFIVDVYCIMRISLLHSYWIPMRRTLPLLAFPVVSFIFLFF | 79400 |
| TRQYIINILFGIMTVENFDLEDIIYFYMFIARNLPKYPQHIMLPGTSLHQVLV | 54100 |
| AAGKAGKGGKGAGKAGKGAGKGKGGKRGGKGGKGAKAAGKGAAKAASQAAAAS | 37100 |
| MCRFFIFLLSFLYDISVPILVFWSVHSPLLGWLFPGGGYTWRCLFFLCFLVYM | 51400 |
| MGLWARFFCFVIVCFQITFLYCLFSFSPSFLDLQKTQPLFFTFFFFCSFPSFP | 44200 |
| STIHNLFEVVLLPDLCGFCCFSMRFVVLVDLVGTLTLPVTVVYLIYLIYVIAS | 54400 |
| MMHSLHPLSISILSLDFNLSYLLFVLPCHRIICSFFRLLAVLFHFFLFIGFYL | 60300 |
| PFLFPSLFYSQYHTIPFSFSCHFIPLSFSFPSFYSGSPIPFPFLFSSSYLFLF | 58300 |
